Earlier results, collected in PMC9780825, “Combining mKate2-Kv1.3 Channel and Atto488-Hongotoxin for the Studies of Peptide Pore Blockers on Living Eukaryotic Cells” (Toxins, 2022).

Key:
Kv1.3 (Mus musculus) = Kv1.3 (Mus musculus) (UniProt P16390); experiment: whole-cell patch clamp
[1] = target: Kv1.3 (Rattus norvegicus) (UniProt P15384); experiment: two-electrode voltage clamp
Kv1.3 (Homo sapiens) [2] = target: Kv1.3 (Homo sapiens) (UniProt P22001); experiment: two-electrode voltage clamp
Kv1.3 (Homo sapiens) [3] = target: Kv1.3 (Homo sapiens) (UniProt P22001); experiment: Rb+ efflux
Kv1.3 (Homo sapiens) [4] = target: Kv1.3 (Homo sapiens) (UniProt P22001); experiment: radioligand analysis

Kv1.3 (Mus musculus), sequence (P16390 whole entry): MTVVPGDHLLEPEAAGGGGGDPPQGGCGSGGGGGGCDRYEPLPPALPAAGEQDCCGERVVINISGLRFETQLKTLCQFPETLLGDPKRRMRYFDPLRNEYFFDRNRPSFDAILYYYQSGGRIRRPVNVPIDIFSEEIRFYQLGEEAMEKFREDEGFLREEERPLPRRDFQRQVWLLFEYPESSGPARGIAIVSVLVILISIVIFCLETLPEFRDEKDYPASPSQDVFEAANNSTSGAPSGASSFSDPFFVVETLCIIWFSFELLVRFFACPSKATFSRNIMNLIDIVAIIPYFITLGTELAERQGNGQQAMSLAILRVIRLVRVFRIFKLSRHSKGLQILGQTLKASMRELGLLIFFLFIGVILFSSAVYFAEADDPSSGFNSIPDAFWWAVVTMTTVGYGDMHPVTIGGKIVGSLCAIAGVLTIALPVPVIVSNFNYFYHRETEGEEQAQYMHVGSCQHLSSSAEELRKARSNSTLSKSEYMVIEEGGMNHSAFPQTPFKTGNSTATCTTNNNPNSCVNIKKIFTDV
agitoxin 2, sequence (P46111 whole entry): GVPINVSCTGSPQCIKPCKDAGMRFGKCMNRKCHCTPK
Kv1.3 (Homo sapiens), sequence (P22001 whole entry): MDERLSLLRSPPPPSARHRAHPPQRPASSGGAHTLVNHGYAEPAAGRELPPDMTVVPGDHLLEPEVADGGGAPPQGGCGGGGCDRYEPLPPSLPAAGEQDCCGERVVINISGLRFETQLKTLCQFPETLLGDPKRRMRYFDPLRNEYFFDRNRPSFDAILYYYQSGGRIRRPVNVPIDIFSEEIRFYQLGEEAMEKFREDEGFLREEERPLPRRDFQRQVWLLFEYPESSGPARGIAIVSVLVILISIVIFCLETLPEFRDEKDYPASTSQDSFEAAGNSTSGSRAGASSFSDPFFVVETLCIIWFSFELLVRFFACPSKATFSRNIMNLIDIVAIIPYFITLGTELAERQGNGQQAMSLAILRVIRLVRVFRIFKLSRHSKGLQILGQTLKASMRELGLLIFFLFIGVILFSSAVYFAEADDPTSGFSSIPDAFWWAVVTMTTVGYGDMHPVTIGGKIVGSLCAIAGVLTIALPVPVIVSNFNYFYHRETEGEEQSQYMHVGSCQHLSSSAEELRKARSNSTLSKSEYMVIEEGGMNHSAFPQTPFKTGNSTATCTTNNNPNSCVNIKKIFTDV
charybdotoxin, sequence (P13487 23-59): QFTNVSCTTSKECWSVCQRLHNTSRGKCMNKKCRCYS
hongotoxin 1, sequence (P59847 whole entry): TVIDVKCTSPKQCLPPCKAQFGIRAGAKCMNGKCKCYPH
kaliotoxin 1, sequence (P24662 whole entry): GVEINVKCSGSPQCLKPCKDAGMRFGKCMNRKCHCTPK
Kv1.3 (Rattus norvegicus), sequence (P15384 whole entry): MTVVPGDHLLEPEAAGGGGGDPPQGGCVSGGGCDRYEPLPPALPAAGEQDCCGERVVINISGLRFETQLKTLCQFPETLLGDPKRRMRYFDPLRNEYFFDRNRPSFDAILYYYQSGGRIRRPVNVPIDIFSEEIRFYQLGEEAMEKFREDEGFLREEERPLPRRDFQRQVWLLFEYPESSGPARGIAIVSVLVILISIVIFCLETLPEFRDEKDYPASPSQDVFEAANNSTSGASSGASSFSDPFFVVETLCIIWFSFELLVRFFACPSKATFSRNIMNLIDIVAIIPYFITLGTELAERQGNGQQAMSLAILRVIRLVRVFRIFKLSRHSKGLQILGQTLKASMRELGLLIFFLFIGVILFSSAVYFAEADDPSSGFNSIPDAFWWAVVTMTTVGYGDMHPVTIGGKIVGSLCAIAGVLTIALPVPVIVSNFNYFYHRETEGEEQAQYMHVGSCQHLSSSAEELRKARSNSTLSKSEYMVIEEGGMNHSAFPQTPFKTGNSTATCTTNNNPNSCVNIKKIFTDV

## agitoxin 2 (from UniProt P46111)
Kv1.3 (Mus musculus)
  Kd: 0.2 nM
[1]
  Kd: 0.004 nM
Kv1.3 (Homo sapiens) [2]
  Kd: 0.05 nM

## charybdotoxin (from UniProt P13487)
Kv1.3 (Mus musculus)
  Kd: 3 nM
Kv1.3 (Homo sapiens) [2]
  Kd: 0.9 nM

## hongotoxin 1 (from UniProt P59847)
Kv1.3 (Homo sapiens) [3]
  Kd: 0.086 nM
Kv1.3 (Homo sapiens) [4]
  Kd: 0.00024 nM

## kaliotoxin 1 (from UniProt P24662)
Kv1.3 (Mus musculus)
  Kd: 0.65 nM
Kv1.3 (Homo sapiens) [2]
  Kd: 0.01 nM
